{
  "source": "ChEMBL document CHEMBL4706520",
  "about": "“Development of disulfide-derived fructose-1,6-bisphosphatase (FBPase) covalent inhibitors for the treatment of type 2 diabetes” (Eur J Med Chem, 2020)",
  "proteins": {"B1": {"name": "Fructose-1,6-bisphosphatase 1 (Homo sapiens), P09467 (protein)", "chain": "MADQAPFDTDVNTLTRFVMEEGRKARGTGELTQLLNSLCTAVKAISSAVRKAGIAHLYGIAGSTNVTGDQVKKLDVLSNDLVMNMLKSSFATCVLVSEEDKHAIIVEPEKRGKYVVCFDPLDGSSNIDCLVSVGTIFGIYRKKSTDEPSEKDALQPGRNLVAAGYALYGSATMLVLAMDCGVNCFMLDPAIGEFILVDKDVKIKKKGKIYSLNEGYARDFDPAVTEYIQRKKFPPDNSAPYGARYVGSMVADVHRTLVYGGIFLYPANKKSPNGKLRLLYECNPMAYVMEKAGGMATTGKEAVLDVIPTDIHQRAPVILGSPDDVLEFLKVYEKHSAQ"}},
  "compound": "c1csc(SSc2nccs2)n1",
  "experiment": "Covalent inhibition of FBPase WT (unknown origin) assessed as Vmax measured at 45 mins",
  "conditions": "Homo sapiens",
  "data": [
    {"protein": "B1", "values": [
      {"measurement": "Vmax", "result": 4, "unit": "U/mg"}
    ]}
  ]
}
